Experimental data taken from the supplement of paper PMC10567573.

B1: HESX1 (parent)
chain: HVPNPPSGISFPSVVDHPMPEERA
B2: FBXO33 (parent)
chain: RLRGLLRVLRGRPGAGSRRRGRMA

Variants of: B1
Assay: protein stability index of a GFP-peptide fusion (GPS, HEK-293T) (PSI 1-6); higher = more stable
Conditions: c terminus: a fixed tail appended
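Note: lentivirally expressed fusions sorted by FACS into six bins by GFP to DsRed ratio, PSI derived from sequencing read proportions per bin multiplied by bin number.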

Protein stability index, by site and new letter:
N4: V 2.71; I 3.54; D 3.88; Y 3.06; Q 3.45; K 3.76; S 2.24; H 3.09; R 4.18; T 2.22; L 4.27; E 3.8; C 2.23; G 1.66; F 3.47; M 3.04; W 3.44; A 1.65
P6: M 2.63; K 1.78; W 2.25; F 1.59; Q 2.67; T 2.13; S 2.4; R 1.71; L 2.62; I 2.24; C 1.69; D 2.56; V 2.11; G 1.81; H 1.83; A 2.34; N 2; E 2.98; Y 2.39
P5: W 2.39; A 2.71; D 3.96; Q 3.5; N 3.03; T 2.74; K 2.69; G 1.93; V 2.82; R 3.28; H 2.6; L 2.53; C 2.45; S 3.76; M 2.95; F 2.38; I 3.02; Y 2.03; E 3.81
P3: M 4.21; T 3.9; G 4.01; I 3.96; N 4; S 3.78; R 2.27; Y 3.54; Q 4.09; L 3.88; K 2.99; A 3.79; W 2.94; E 5.25; V 3.86; D 5.34; C 3.54; H 4.13; F 3.85
H1: V 5.32; P 5.28; Y 2.25; E 5.06; D 5.46; F 3.54; T 5.62; I 4.77; K 4.82; R 4.62; A 5.22; Q 5.07; L 4.51; N 5.29; S 5.2; C 4.48; M 5.08; W 4.33; G 5.41
I9: C 2.66; F 3.22; P 2.23; R 2.67; T 3.8; L 2.14; D 4.1; M 2.5; H 3.24; K 3.53; Q 3.62; S 3.33; E 3.58; N 3.31; A 3.04; G 3.59
S7: F 2.15; G 2.4; M 2.74; D 2.8; A 3.88; T 2.75; P 2.7; E 3.57; R 2.9; Q 2.84; W 1.71; N 2.99; I 3.4; V 3.3; C 2.38; L 3.61; Y 2.04; K 2.93; H 2.54
V2: E 5.7; Y 5.18; S 5.06; T 4.92; G 5.17; W 4.53; L 5; I 4.37; D 5.52; K 5; C 4.32; Q 5.26; M 5.26; R 4.84; N 5.14; A 4.97; F 4.78; H 4.86
G8: N 3.48; H 3.49; V 2.87; W 2.87; Q 3.18; R 2.94; M 2.59; K 3.62; A 3.2; E 3.01; T 2.91; D 4.1; F 2.84; S 3.03; C 2.36; P 4.09; Y 2.09; L 3.17; I 2.83

Variants of: B2
Assay: as above
Conditions: c terminus: a fixed tail appended

Protein stability index, by site and new letter:
M23: P 1.58; H 2.42; N 2.02; L 2.89; V 1.97; T 2.44
R12: Q 2.17; T 2.03; I 1.06; S 2.19; D 2.31; G 2.53; W 1.79; A 3.08; L 1.66
R18: H 1.59; E 1.99; V 1.26; I 1.72; F 1; C 1.8; Q 2.83; G 1.16; L 1.15; Y 1.95; P 1.08
R20: C 1.72; Q 1.56; M 2.24; F 1.13; V 2.39; H 1.23; E 2.29; A 4.73
P13: K 3.26; F 2.1; H 1.77; Q 2.34; S 3.48; D 2.01; C 2.09; V 2.68; I 1.6
G16: S 1.5; L 1.44; T 2.96; P 2.06; Y 1.86; Q 1.65; N 2.57; H 1.83; F 1.79; E 2.94; I 1.01
A24: D 1.04; L 1.64; Y 2.27; P 3.3; I 1.46; R 2.63; W 2.42; F 2.73; E 2.54; Q 2.74
R19: H 1.88; N 1.71; E 1.43; Q 1.75; T 1.75; W 1.48; K 1.89; S 1.79
S17: E 2.36; G 1.92; T 3.32; L 2.86; Y 2.52; K 2.01; A 1.75; F 2.58
L9: E 3.75; Y 2.73; N 3.72; F 3.09; V 1.92; Q 3.39; W 2.83; K 3.26; T 4
G21: H 1.66; D 1.78; L 1.57; I 2.32; C 1.39; R 3.38; F 1.58; P 1.69
R22: K 1.76; H 2.33; W 1.65; C 2.09; I 2.78; M 2.25; N 1.77; S 1.99; Y 1.7
R10: S 1.93; N 1.72; C 2.99; P 2.59; I 2.25; A 1.96
G14: V 2.04; A 2.84; M 1.92; F 1.85; C 1.84; Y 3; K 1.86; W 2.76; L 1.41
G11: N 2.47; C 1.64; E 1.83; I 2.77; H 1.92; P 2.23; T 2.23
V8: S 1.93; N 2.01; H 2.1; D 2.47; C 2.06; R 2.54; W 1.87; F 2.83; I 2.84; T 1.81; P 4.41; K 1.91; Y 2.64
L6: R 4.41; K 2.73; I 2.18; V 2.77; T 4.48
A15: F 1.93; D 1.66; L 1.19; W 1.8; R 2.46; N 1.8; G 1.54; C 1.71; Q 1.49; Y 2.17; S 1.6; K 1.25; T 1.47
R7: E 2.04; L 2.56; S 2.83; Y 2.41; W 1.69; I 2.17; T 2.05; G 2.86; N 2.35
